Experiments:
[1] = target: HA-tagged bovine pancreatic RNase N113S expressed in CHO cells (bovine) (UniProt P61823)
[2] = target: HA-tagged bovine pancreatic RNase expressed in CHO cells (bovine) (UniProt P61823)

HA-tagged bovine pancreatic RNase N113S expressed in CHO cells (from UniProt P61823 27-150) (enzyme)
efficiency of secretion after a 60-min chase (pulse-chase, CHO cells) [1]: 72%

HA-tagged bovine pancreatic RNase expressed in CHO cells (from UniProt P61823 27-150) (enzyme)
efficiency of secretion after a 60-min chase (pulse-chase, CHO cells) [2]: 45%

Reference: PMC3037694
